Assays:
[1] = target: hERG F860A core channel (hERG ΔPAS F860A-citrine, S620T) (human) (UniProt Q12809); test: FRET or BRET
[2] = target: hERG ΔPAS-citrine channel (hERG core channel), S620T (human) (UniProt Q12809); test: FRET or BRET

“hERG PAS domain fused to cyan fluorescent protein (hERG PAS-CFP) (from UniProt Q12809 1-135) (domain or fragment)” gave a Ratio A – Ratio A0 (proportional to FRET efficiency) [1] of 0.09 and a Ratio A − Ratio A0 (proportional to FRET efficiency) [2] of 0.2.
